Tests used:
[1] = target: T1, inactivated DENV1 (West Pacific 74, Microbix) (Dengue virus serotype 1, UniProt P17763 281-775); experiment: ELISA, antigen coated at 1 µg/mL, hybridoma supernatant
T1 construct: also called dengue virus serotype 1

[2] = target: T2, inactivated DENV2 (16681; Microbix) (Dengue virus serotype 2, UniProt P29990 281-775); experiment: as above
T2 construct: also called dengue virus serotype 2

[3] = target: T3, ZIKV E protein (Native Antigen) (Zika virus); experiment: ELISA, antigen coated at 1 µg/mL, hybridoma supernatant, anti-rabbit IgG-HRP
T3 chain: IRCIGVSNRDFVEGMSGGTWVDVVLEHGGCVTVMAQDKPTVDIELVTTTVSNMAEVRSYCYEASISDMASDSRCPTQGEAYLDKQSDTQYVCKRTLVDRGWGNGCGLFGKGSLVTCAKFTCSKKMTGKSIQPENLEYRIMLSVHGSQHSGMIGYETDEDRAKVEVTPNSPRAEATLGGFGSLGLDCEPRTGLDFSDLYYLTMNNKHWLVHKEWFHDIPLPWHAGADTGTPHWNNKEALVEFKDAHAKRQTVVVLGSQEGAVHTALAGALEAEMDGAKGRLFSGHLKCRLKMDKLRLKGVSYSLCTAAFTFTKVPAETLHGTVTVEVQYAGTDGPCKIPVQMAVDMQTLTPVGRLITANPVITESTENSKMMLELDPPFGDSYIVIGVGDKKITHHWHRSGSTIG

[4] = target: T4, inactivated DENV3 (CH53489, Microbix) (Dengue virus serotype 3); experiment: as above
T4 construct: also called dengue virus serotype 3

[5] = target: T5, inactivated DENV4 (TVP-360, Microbix) (Dengue virus serotype 4); experiment: as above
T5 construct: also called dengue virus serotype 4

[6] = target: T1, inactivated DENV1 (West Pacific 74, …); experiment: as above
[7] = target: T2, inactivated DENV2 (16681; Microbix); experiment: as above

T1 sequence (P17763 281-775 limits assumed): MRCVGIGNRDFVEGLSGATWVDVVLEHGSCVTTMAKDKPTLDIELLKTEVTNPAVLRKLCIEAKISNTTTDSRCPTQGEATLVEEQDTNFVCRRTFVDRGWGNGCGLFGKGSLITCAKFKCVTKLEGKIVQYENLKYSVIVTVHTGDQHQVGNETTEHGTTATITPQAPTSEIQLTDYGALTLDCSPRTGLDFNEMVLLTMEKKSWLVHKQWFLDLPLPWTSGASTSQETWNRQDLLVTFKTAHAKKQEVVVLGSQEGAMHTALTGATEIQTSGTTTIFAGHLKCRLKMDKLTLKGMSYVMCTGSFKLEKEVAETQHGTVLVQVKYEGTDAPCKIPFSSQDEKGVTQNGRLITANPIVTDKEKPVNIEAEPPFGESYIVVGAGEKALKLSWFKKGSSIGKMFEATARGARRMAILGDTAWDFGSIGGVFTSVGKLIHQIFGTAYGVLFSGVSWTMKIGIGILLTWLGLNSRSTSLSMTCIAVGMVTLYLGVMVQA

Binder	binding result [1]	binding result [2]	optical density (OD) [3]	optical density (OD) [4]	optical density (OD) [5]	optical density (OD) [6]	optical density (OD) [7]
Anti-ZIKV #2 (IgG, Clone 306-2) (antibody, V domains shown, also called antibody 2; acceptor Ab of mAb pairs #1 to 3) VH: QSLEESGGDLVKPGASLTLTCTASGFDFSDRYYMCWVRQAPGKGLEWIGCIYVGSGDTYYASWAKGRFTISRTSSTTVTLQMTRLTAADTATYFCARHPGTYFTLWGPGTLVTVSS VL: DVVMTQTPSSVSAAVGGTVTINCQASQNIVNNLAWYQQRPGQPPKLLIYDTSTLASGVPSRFKGSGSGTEFTLTISDLECADAATYYCQTYYYYNKIINGFGGGTEVVVKG	no binding	no binding	0.61 OD	0.034 OD	0.048 OD	0.037 OD	0.034 OD
Anti-ZIKV #1 (IgG, Clone 242-3) (antibody, V domains shown, also called antibody 1; donor Ab of mAb pair #1) VH: QAQLEESGGDLVKPEGSLTLTCTASGFSFTDRHYMCWIRQAPGKGLEWIACVYPGSSGSTYYASWARGRFTISKTSSTTVTLRMTSLTAADTATYFCARSSYPDSSGYSYGMDLWGPGTLVTVSS VL: DIVMTQTPASVEAAVGGTVTIKCQASQNINSNLAWYQQKPGQRPKFLMYLTSKLASGVPSRFRGSGSGTQFTLTISDLECADAATYYCQTYYDISNYGYAFGGGTEVVVKG	no binding	no binding	0.33 OD	0.04 OD	0.038 OD	0.04 OD	0.034 OD

Source: patent US20230204567A1 (Takeda / Millennium, published 2023)
